Peptide text beside a SMILES is read from it. * marks the point of attachment. X1 = O=C(CCC(=O)*)OC[C@H](O)[C@H]1OC(=O)C(O)=C1O A value given as a limit tells only on which side of the number the result lay.

Data set [1] relates to human normal fibroblasts, B16 melanocytes and HaCaT cells. In words: Cytotoxicity, MTT assay. The format is cell-based. As to conditions: concentration of 5 mM. For orientation: Formazan colour is commonly taken as a measure of viable cells.
The subject of another data set is rabbits. As to the kind of experiment: Skin irritation test (patch test). Format: in vivo. As to conditions: 0.5 ml of 1% in 0.01M PBS, 24 hrs patch, read 24 hrs and 72 hrs. The protocol: 0.5 ml of 1% compound II-4 in 0.01M PBS was applied to each hairless area (2.5 cm×2.5 cm) of the back of rabbits for 24 hrs once. Each of the treated sites was covered with a single sheet of gauge (10 cm×10 cm) to prevent loss of the test compound by contact and then an impermeable and unreactive solid film to prevent evaporation of the test compound. Then, the treated site was bound with an elastic bandage while not disturbing behavior of the rabbits, and the bandage was then held in place by a paper tape. 24 hrs and 72 hrs after application of the test compound, skin irritation was investigated.

Another data set relates to eyes of rabbits. In words: Ocular irritation test. Format: in vivo, New Zealand White Rabbit. As to conditions: 0.1 ml of 1% in 0.01M PBS. As to the method:
The compound II-4 was determined whether inducing ocular irritation or evaluated for the degree of ocular irritation. The compound II-4 was applied to the eyes of rabbits (New Zealand White Rabbit, NZW).
0.1 ml of 1% compound II-4 in 0.01M PBS was applied to the eyes of the rabbits. That is, the test compound was applied to one eye (right) of each of nine rabbits in an amount of 0.1 ml/head according to the standard criteria for toxicity test of pharmaceutical and medicinal substances (a publication by Korean Food & Drug Administration, Vol. 1999-61, Dec. 22, 1999). After application of the test compound, the treated eyes of the rabbits were maintained at a state of being closed for about one second to prevent loss of the applied test compound. Then, the degree of damage in the cornea, the iris and the conjunctiva was investigated.

Data set [2] deals with male Hartley guinea pigs. In words: Phototoxicity test. As to conditions: guinea pig, in vivo. As to the method:
Each of the test samples was applied to the skin of guinea pigs, and the guinea pigs were exposed to ultraviolet A (UVA) radiation. Then, potency to induce phototoxicity was evaluated. Induction of phototoxicity, which is an abnormal response of the skin to a photo-stimulus such as ultraviolet or visible light, occurs non-immunologically by a chemical. Unlike the allergic response, the degree of phototoxicity can be expected by sufficient intensity of radiation and drugs.
CP and 8-MOP were prepared at a final concentration of 10% in DMSO and then diluted to 1%. Each of guinea pigs was fixed on a fixing plate, and the skin of the guinea pig was covered with 50 μl of each of the test samples. Then, the right area of the skin was not exposed to UV light, and the left area of the skin was exposed to UVA light (320 to 380 nm) of 15 J/cm^2, which was irradiated in a distance of about 10 cm for about 2 hrs. 24 hrs, 48 hr and 72 hrs after UVA irradiation, photosensitization in the treatment group was evaluated in comparison with that in the positive control groups.

The nature of data set [3]: Toxicity test upon single oral administration. The format is in vivo. The following applies: both sexes, mouse, in vivo, 2000 mg/kg; single oral administration, male and female mice; read-out: Lethal dose. As to the method: (§1) The compound II-4 was evaluated for safety upon single oral administration. The compound II-4 was orally administered to five male and five female mice (SamtakoBioKorea Co. Ltd.) in a single dose of 2,000 mg/10 ml/kg. As a control, five male and five female mice were orally administered once with 0.1 M PBS of 10 ml/kg. During 14 days after administration, death, general pathogenic symptoms and change in body weight were not observed.

A further data set has as its system mice. In words: Toxicity test upon single oral administration. The format is in vivo. The following applies: single oral dose of 2,000 mg/10 ml/kg, 14 days, male and female mice. The protocol:
as §1

Data set [4] has as its system male Hartley guinea pigs. In words: Photosensitization test (Adjuvant & Strip method). The format is in vivo. As to conditions: guinea pig, in vivo. The protocol: A photosensitization test for the compound II-4 was carried out according to an Adjuvant & Strip method using male Hartley guinea pigs. After four sites to be sensitized were selected at the cervical and dorsal skin of the guinea pigs, an emulsion of WFI and FCA were intradermally injected to each of the selected sites. The sensitized sites were stripped only in a degree of inducing weak erythema, and covered with 0.01 PBS (excipient group), the compound II-4 (test group) and CP (chlorpromazine; positive control group) in a non-occlusive manner. After two hours, long wave-length UV light of about 10 J/cm^2 was irradiated to the test substance-applied sites. 24 hrs, 48 hrs and 72 hrs after UV irradiation, signs of photosensitization were investigated.

Data set [5] concerns male Hartley guinea pigs. The following applies: guinea pig, in vivo.
Procedure: Two weeks after secondary sensitization, topical challenge was carried out, as follows. […] Skin reading was made after removal of the patches.

With `C[C@@H](O)[C@H](NC(=O)[C@H](CCCCN)NC(=O)CCC(=O)OC[C@H](O)[C@H]1OC(=O)C(O)=C1O)C(=O)N[C@H](C(=O)N[C@@H](CCCCN)C(=O)N[C@@H](CO)C(=O)O)[C@@H](C)O` [II-4, 6-(succinyl-lysyl-threonyl-threonyl-lysyl-serine(SEQ ID NO:1))ascorbic acid] (X1-KTTKS-OH), the Cytotoxicity result in data set [1] is recorded as “did not showed cytotoxicity”. The Skin irritation entry with rabbits is reported as “very safe upon application to the skin”. Further, the “Index of Acute Ocular Irritation (I.A.O.I)” value in the data set on eyes of rabbits is on record as “zero”. In the data set with eyes of rabbits (day 1 to day 7), the “Conjunctiva redness and chemosis” value is “no sign of conjunctiva redness and chemosis was observed”. For the same molecule, in the data set with male Hartley guinea pigs [2], the Evaluation result is “Practically non-irritating”, the Mean score worked out at 0, the “Phototoxicity (conclusion)” value is on record as “rarely have phototoxicity” and the “Total score/Site No” value was 0 + 0/10. In the data set with male Hartley guinea pigs [2], the “Total score/Site No.” value is recorded as 0 + 0/10. In addition, the LD50 at 336 h in data set [3] is over 2000 mg/kg. The “Death, general pathogenic symptoms and change in body weight” value in the data set on mice is “not observed”. In addition, in the data set with male Hartley guinea pigs [4], the Mean score entry is listed as “(0 + 0)/5”, the Photosensitization index is given as 0, the “Photosensitizer (conclusion)” value is listed as “not a photosensitizer” and the Stimulation index is listed as 0. In the data set with male Hartley guinea pigs [5], the Sensitization class result is recorded as “I”, the “Sensitization rate (%)” value was 0%, the “Sensitization score (total hrs)” value is 0 and the “Skin reaction in induced regions” value is “no skin reaction was observed”. In the data set with male Hartley guinea pigs [5], the sensitization class result is given as “I” and the skin irritation rate is reported as 0%.

Source of the values: patent US7521477B2, “Vitamin C derivatives with peptide, preparation method thereof and composition comprising the same” (Peptron Co., Ltd., priority 2003, dated 2009).
